Test results reported in the supplement of paper PMC6757056.
± gives the standard deviation of the averaged measurements.

B1: library; a variant is named by its letters at N, in order (parent)
chain: GCUGUCACCGGUGCUUGGUACGUUAUAUUCAGCCGGUCUGAUGAGUCUNNNNNNAGACGAAACAGC

What was measured:
(6R,S)-folinic acid [1] = variants of: B1; assay: FACS-Seq fitted mean relative fluorescence mCherry/BFP without ligand (log10 relative fluorescence); HEK293T overexpressing SLC46A1; higher = higher reporter protein expression; details: without (6R,S)-folinic acid; ligand present: no
Outline: (§1)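 Enriched HEK293T cells carrying, by lentivirus, an mCherry reporter with the ribozyme switch and an EF1α-BFP marker spent 48 h with or without ligand and were sorted into 6 bins by mCherry/BFP. MiSeq sequencing of PCR-amplified bin genomic DNA gave bin counts. Fluorescence was calculated as the fitted normal mean of those counts. Counts were binned on log10(mCherry/BFP), and means were scaled to five spiked-in control ribozymes.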

(6R,S)-folinic acid [2] = variants of: B1; assay: normalized RNA/DNA level without ligand (relative to sTRSVctl = 100) (log10 (% of sTRSVctl)); HEK293T overexpressing SLC46A1; higher = less ribozyme self-cleavage, higher mRNA level; details: without (6R,S)-folinic acid; ligand present: no
Method: (§2)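 Hammerhead (sTRSV) ribozyme switch libraries with a ligand aptamer grafted on stem I and a randomized N4-6 loop II, cloned into the 3' UTR of mCherry and transiently transfected into HEK293T cells; RNA-Seq 72 h post transfection with ligand added 1 h before transfection; RNA read count / plasmid DNA read count normalized to the non-cleaving sTRSVctl (x100), log10; sequences with >100 DNA reads. FACS-Seq: lentiviral library sorted into 6 bins after 48 h ligand, log-normal fit mean of mCherry/BFP scaled to controls. Printed sequences are partial switch sequences.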

(6R,S)-folinic acid [3] = variants of: B1; assay: FACS-Seq fitted mean relative fluorescence mCherry/BFP with ligand (log10 relative fluorescence); HEK293T overexpressing SLC46A1; ligand concentration (+) FACS-Seq: 6 mM; higher = higher reporter protein expression; details: with (6R,S)-folinic acid; ligand present: yes
Outline: as §1

(6R,S)-folinic acid [4] = variants of: B1; assay: normalized RNA/DNA level with ligand (relative to sTRSVctl = 100) (log10 (% of sTRSVctl)); HEK293T overexpressing SLC46A1; ligand concentration (+) RNA-Seq: 6 mM; higher = less ribozyme self-cleavage, higher mRNA level; details: with (6R,S)-folinic acid; ligand present: yes
Method: as §2

| Variant | FACS-Seq fitted mean (log10) ((6R,S)-folinic acid [1]) | normalized RNA/DNA level without ligand (log10) ((6R,S)-folinic acid [2]) | FACS-Seq fitted mean (log10) ((6R,S)-folinic acid [3]) | normalized RNA/DNA level with ligand (log10) ((6R,S)-folinic acid [4]) |
| --- | --- | --- | --- | --- |
| AACCUA | -0.147 ± 0.17 | 2.0051 ± 8.4e-05 | -0.514 ± 0.18 | 2.02 ± 0.034 |
| UACCUC | 0.402 ± 0.35 | 2.052 ± 0.0094 | 0.585 ± 0.43 | 2.04 ± 0.049 |
| UACCUG | 0.402 ± 0.083 | 1.86 ± 0.039 | 0.39 ± 0.14 | 1.99 ± 0.052 |
| AACCUU | 0.578 ± 0.19 | 2.044 ± 0.0052 | 0.59 ± 0.22 | 2.042 ± 0.02 |
| AACGAA | 0.105 ± 0.2 | 1.9508 ± 0.00076 | 0.0527 ± 0.083 | 1.99 ± 0.045 |
| GACGAA | 0.551 ± 0.09 | 1.963 ± 0.0039 | 0.69 ± 0.21 | 2 ± 0.04 |
| UACGAC | -0.293 ± 0.061 | 2.013 ± 0.0052 | -0.283 ± 0.015 | 2.01 ± 0.039 |
| AACGAG | 0.367 ± 0.0092 | 1.82 ± 0.032 | 0.501 ± 0.065 | 1.984 ± 0.01 |
| GACGAG | -0.054 ± 0.034 | 1.907 ± 0.0022 | 0.319 ± 0.29 | 2.01 ± 0.037 |
| UACGAG | 0.31 ± 0.029 | 1.689 ± 0.014 | 0.472 ± 0.14 | 1.953 ± 0.013 |
| CACGAU | 0.217 ± 0.11 | 1.99 ± 0.027 | 0.334 ± 0.6 | 2.01 ± 0.021 |
| GACGAU | 0.612 ± 0.086 | 1.954 ± 0.0091 | 0.648 ± 0.068 | 2 ± 0.037 |
| UACGAU | 0.175 ± 0.046 | 1.9462 ± 0.0017 | 0.146 ± 0.33 | 2.02 ± 0.023 |
| AACGCA | 0.404 ± 0.048 | 2.001 ± 0.013 | 0.533 ± 0.023 | 2 ± 0.035 |
| CACGCA | 0.164 ± 0.12 | 2.025 ± 0.013 | 0.119 ± 0.063 | 2.024 ± 0.011 |
| AACGCC | 0.452 ± 0.091 | 2.0652 ± 0.0011 | 0.336 ± 0.023 | 2.07 ± 0.046 |
| GACGCC | 0.287 ± 0.023 | 2.043 ± 0.0061 | 0.0736 ± 0.3 | 2.03 ± 0.028 |
| AACGCU | 0.282 ± 0.034 | 2.01 ± 0.0054 | 0.217 ± 0.34 | 2 ± 0.035 |
| GACGGA | 0.373 ± 0.037 | 1.991 ± 0.014 | 0.557 ± 0.19 | 2.05 ± 0.033 |
| UACGGA | 0.537 ± 0.046 | 1.8816 ± 0.00018 | 0.817 ± 0.11 | 2 ± 0.029 |
| GACGGG | 0.31 ± 0.087 | 1.99 ± 0.011 | 0.302 ± 0.24 | 2.04 ± 0.051 |
| UACGGG | 0.198 ± 0.013 | 1.704 ± 0.0067 | 0.717 ± 0.3 | 1.97 ± 0.053 |
| GACGGU | 0.318 ± 0.049 | 1.994 ± 0.016 | 0.486 ± 0.32 | 2.01 ± 0.029 |
| UACGGU | 0.419 ± 0.099 | 1.918 ± 0.012 | 0.282 ± 0.041 | 1.98 ± 0.024 |

| Variant | FACS-Seq fitted mean (log10) ((6R,S)-folinic acid [1]) | normalized RNA/DNA level without ligand (log10) ((6R,S)-folinic acid [2]) | FACS-Seq fitted mean (log10) ((6R,S)-folinic acid [3]) | normalized RNA/DNA level with ligand (log10) ((6R,S)-folinic acid [4]) |
| --- | --- | --- | --- | --- |
| AACGUA | 0.196 ± 0.079 | 1.9883 ± 0.00019 | 0.207 ± 0.071 | 2.02 ± 0.026 |
| CACGUA | 0.476 ± 0.1 | 1.989 ± 0.019 | 0.649 ± 0.35 | 2.01 ± 0.025 |
| GACGUA | 0.251 ± 0.023 | 1.9997 ± 0.00027 | 0.131 ± 0.26 | 2.03 ± 0.038 |
| AACGUG | 0.4305 ± 0.0017 | 1.874 ± 0.0049 | 0.715 ± 0.2 | 1.98 ± 0.029 |
| GACGUG | 0.598 ± 0.2 | 1.946 ± 0.019 | 0.734 ± 0.17 | 2.01 ± 0.029 |
| UACGUG | 0.0454 ± 0.021 | 1.7 ± 0.018 | 0.518 ± 0.16 | 1.946 ± 0.011 |
| AACGUU | 0.445 ± 0.028 | 1.991 ± 0.012 | 0.286 ± 0.094 | 1.98 ± 0.038 |
| AACUAC | 0.381 ± 0.012 | 2 ± 0.021 | 0.181 ± 0.25 | 2.005 ± 0.02 |
| GACUAC | 0.495 ± 0.024 | 2.041 ± 0.011 | 0.191 ± 0.19 | 2.066 ± 0.016 |
| GACUAG | 0.271 ± 0.048 | 1.934 ± 0.019 | 0.493 ± 0.089 | 2 ± 0.033 |
| GACUAU | 0.375 ± 0.083 | 1.9961 ± 0.00078 | 0.557 ± 0.24 | 2.002 ± 0.0044 |
| UACUAU | 0.437 ± 0.19 | 1.967 ± 0.018 | 0.489 ± 0.21 | 2.03 ± 0.023 |
| GACUCC | 0.513 ± 0.089 | 2.053 ± 0.012 | 0.583 ± 0.11 | 2.06 ± 0.013 |
| AACUCG | 0.22 ± 0.034 | 1.998 ± 0.014 | 0.302 ± 0.52 | 1.99 ± 0.026 |
| CACUGA | 0.463 ± 0.077 | 2.012 ± 0.0079 | 0.325 ± 0.16 | 2.04 ± 0.028 |
| AACUGA | 0.445 ± 0.11 | 2.008 ± 0.0069 | 0.455 ± 0.17 | 2.02 ± 0.038 |
| UACUGC | 0.238 ± 0.013 | 2.01 ± 0.0074 | 0.329 ± 0.25 | 2.02 ± 0.049 |
| CACUGG | 0.801 ± 0.11 | 1.962 ± 0.013 | 0.687 ± 0.052 | 2.03 ± 0.021 |
| AACUGG | 0.3585 ± 0.0022 | 1.936 ± 0.013 | 0.657 ± 0.038 | 2 ± 0.07 |
| UACUGG | 0.0573 ± 0.058 | 1.65 ± 0.049 | 0.433 ± 0.099 | 1.97 ± 0.039 |
| AACUUA | 0.0993 ± 0.1 | 1.96 ± 0.032 | 0.0419 ± 0.12 | 1.98 ± 0.033 |
| AACUUG | 0.321 ± 0.0087 | 1.94 ± 0.0095 | 0.658 ± 0.031 | 1.996 ± 0.0088 |
| GACUUG | 0.321 ± 0.035 | 1.956 ± 0.018 | 0.389 ± 0.13 | 1.99 ± 0.039 |
| UACUUG | 0.275 ± 0.057 | 1.78 ± 0.022 | 0.607 ± 0.16 | 1.98 ± 0.045 |

| Variant | FACS-Seq fitted mean (log10) ((6R,S)-folinic acid [1]) | normalized RNA/DNA level without ligand (log10) ((6R,S)-folinic acid [2]) | FACS-Seq fitted mean (log10) ((6R,S)-folinic acid [3]) | normalized RNA/DNA level with ligand (log10) ((6R,S)-folinic acid [4]) |
| --- | --- | --- | --- | --- |
| CAGAAA | 0.257 ± 0.038 | 1.944 ± 0.0067 | 0.441 ± 0.2 | 1.97 ± 0.043 |
| AAGAAA | 0.107 ± 0.0018 | 1.935 ± 0.0037 | 0.0952 ± 0.071 | 1.99 ± 0.021 |
| GAGAAA | 0.129 ± 0.016 | 1.958 ± 0.011 | 0.0474 ± 0.047 | 1.996 ± 0.01 |
| UAGAAA | 0.332 ± 0.024 | 1.9239 ± 0.0006 | 0.254 ± 0.35 | 2.01 ± 0.023 |
| AAGAAC | 0.369 ± 0.066 | 1.985 ± 0.012 | 0.624 ± 0.1 | 2 ± 0.038 |
| GAGAAC | 0.435 ± 0.033 | 1.964 ± 0.0051 | 0.598 ± 0.32 | 2.02 ± 0.045 |
| AAGAAG | 0.22 ± 0.028 | 1.8593 ± 0.00099 | 0.315 ± 0.053 | 2 ± 0.052 |
| GAGAAG | 0.0112 ± 0.083 | 1.905 ± 0.0077 | 0.219 ± 0.32 | 2.02 ± 0.029 |
| UAGAAG | 0.056 ± 0.02 | 1.654 ± 0.0022 | 0.456 ± 0.0016 | 1.963 ± 0.019 |
| CAGAAU | 0.372 ± 0.044 | 1.921 ± 0.0042 | 0.495 ± 0.24 | 1.951 ± 0.0096 |
| UAGAAU | 0.421 ± 0.089 | 1.921 ± 0.016 | 0.615 ± 0.02 | 2 ± 0.041 |
| CAGACA | 0.583 ± 0.12 | 2.017 ± 0.00058 | 0.769 ± 0.2 | 1.98 ± 0.02 |
| AAGACA | 0.531 ± 0.012 | 1.985 ± 0.0083 | 0.754 ± 0.13 | 2.01 ± 0.023 |
| UAGACA | 0.386 ± 0.0059 | 1.967 ± 0.0049 | 0.455 ± 0.17 | 2 ± 0.029 |
| CAGACC | 0.131 ± 0.097 | 2.04 ± 0.012 | 0.261 ± 0.16 | 1.99 ± 0.031 |
| AAGACG | 0.519 ± 0.038 | 1.92 ± 0.0073 | 0.622 ± 0.38 | 2 ± 0.058 |
| UAGACG | 0.218 ± 0.052 | 1.754 ± 0.0068 | 0.17 ± 0.055 | 1.97 ± 0.029 |
| GAGACU | 0.361 ± 0.041 | 2.022 ± 0.0074 | 0.232 ± 0.024 | 2.02 ± 0.022 |
| UAGACU | 0.606 ± 0.02 | 2.0068 ± 0.00026 | 0.559 ± 0.038 | 1.98 ± 0.051 |
| AAGAGA | 0.0158 ± 0.096 | 1.929 ± 0.0075 | 0.157 ± 0.024 | 2.03 ± 0.049 |
| GAGAGA | 0.2 ± 0.041 | 1.946 ± 0.011 | 0.279 ± 0.16 | 2.01 ± 0.038 |
| UAGAGA | 0.273 ± 0.12 | 1.807 ± 0.015 | 0.551 ± 0.33 | 1.99 ± 0.029 |
| UAGAGC | 0.0862 ± 0.082 | 1.93 ± 0.022 | 0.445 ± 0.031 | 1.99 ± 0.048 |
| CAGAGG | -0.0517 ± 0.073 | 1.9 ± 0.016 | 0.0689 ± 0.4 | 2.002 ± 0.0054 |
